Assay: yeast display, Sf9 membrane polyspecificity reagent, FACS + sequencing; frameworks hold sequencing errors
In short: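 Polyreactivity labels are assigned by the sorting gate from which each nanobody was recovered. The gates were low and high (top ~1%), set on anti-HA fluorescence for expression and streptavidin fluorescence for reagent binding. Before sorting, galactose-induced (36–48 hours) yeast display cells were stained for 1 hour at 4 °C with 10% biotinylated, detergent-solubilized Sf9 membrane reagent.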

## QVQLQESGGGLVQAGGSLRLGCAASGNISDAGYMGWYRQAPGKEREFVAAIAAGSTTNYADSVKGRFTISRDNAKNTVYLQMNSLKPEDTAVFYCAVASYARVQFEYWGQGTQVTVNS
  polyreactivity (PSR sort gate): low polyreactivity

## QVQLVESGGGLVQAGGSLRLSCAASGRTFVENAMGWYRQAPGKERELVAAITYRGGRTFYADSVKGRFTISRDNAKNTVYLQMNSLKPEDTAVYYCNAVRRTGGHGDYWGQGTQVTVSS
  polyreactivity (PSR sort gate): high polyreactivity

## QFQLVESGGGLVQAGGSLRLSCAASGSIFYGYAMGWYRQAPGKERELVARITGSGGDTSYADSVKGRFTISRDNAKNTVYLQMNSLKPEDTAVYYCNTDLYITYTLYTGSEYDYWGQGTQVTVSS
  polyreactivity (PSR sort gate): low polyreactivity

## QVQLVESGGGLVQAGGSLRLSCAASGSIFLWNAMGWYRQAPGKERELVAAITWRGGSTYYADSVKGRFTISRDNAKNTVYLQMNSLKPEDTAVYYCAADSYDWMDYWGQGTQVTVSS
  polyreactivity (PSR sort gate): low polyreactivity

## QVQLVESGAGLVQAGGSLRLSCAACGSTFRGNAMGWYRQAPGKEREFVASISRRGGRTNYADSVKGRFTISRDNAKNTVYLQMNSLKPEDTAVYYCAATTVPLGDYWGQGTQVTVSS
  polyreactivity (PSR sort gate): high polyreactivity

## QVQLVESGGGLVQAGGSLRLSCAASGRIFTYYTMGWYRQAPGKERELVAANDSGSSTYYADSVKGRFTISRDNAKNTVYLQMNSLKPEDTAVYYCAADGVRSLVRRGYWFDYWGQGTQVTVSS
  polyreactivity (PSR sort gate): low polyreactivity

## QVQLVESGGGLVQAGGSLRLSCAASGFTFYYYAMGWSRQAPGKERELVASISKRGGTYYADSVKGRFTISRDNAKNTVYLQMNSLKPEDTAVYYCAAGIPRQAYKFYWGQGTQVTVSS
  polyreactivity (PSR sort gate): high polyreactivity

## QVQLGESGGGLVQAGGSLRLSCAASGGIFAENAIGRYRQAPGKERELVAAINGGGSTKYADSVKGRFTISRDNAKNTVYLQMNSLKPEDTAVYYCAADPSVPRQVDYWGQGTLVTVSS
  polyreactivity (PSR sort gate): low polyreactivity

## QGQLVESGGGLVQAGGSVRLSCAASRITLGSNAMGWDRQAPGKERELVAAITSGSSTYYADSVKGRFTISRDNAKNTVNLQMNSLKPEDTAVYYCAADPTSYSYEYNYWGQGTQVTVSS
  polyreactivity (PSR sort gate): low polyreactivity

## QVQLVESGGGLVQAGGSRRLSCAASGSIFTSNAMGWYRQAPGNERDLVAVITGSTGRTHYADSVKGRFTISRDNAMNTVYLQMNSLKPEDTAVYYFSAGLTFVTNFDYWGQGTHVTVSS
  polyreactivity (PSR sort gate): low polyreactivity

## QVQLVESGGGLVQAGGSLRLSCAASGSTFPRNAMGWYRQAPGKDRELVAAISGSGGTTYYADSVKGRFTISRDNAKNTVYLQMNSLKPEDTAVYYCAARTSWAYPGGNYWGHGTQVTVSS
  polyreactivity (PSR sort gate): low polyreactivity

## HVQLVESGGGLVQAGGSLRLSCAASGITLVRYAMGWFRPAPGKERELVAAISSSGGSTYYADSVKGRFTISRDNAKNTVYLQMNSLQPEDTAVYYCNAYVHSRRVEFNYWGQGTQVTVSS
  polyreactivity (PSR sort gate): high polyreactivity

## QVQLVESGGGLVQAGGSLRLSCAASGRIFIRNDMGWYRQAPGKERELVAVITRSGGRTYYADSVKGRFTISRDNAKNTVYLQMNSLKPEDTAVYYCAKRQAFKQAPYEYWGQGTQVTVSS
  polyreactivity (PSR sort gate): low polyreactivity

## QVQLVESGGGLVQAGGSLRLSCAASGSSFKRYAMGWYRQAPGKERELVAAINWRGGRTYYADSVKGRFTISRDNAKNTVYLQMNSLKPEDTAVYYCNVVSNSYYYQHYYWGQGTQVTVSS
  polyreactivity (PSR sort gate): high polyreactivity

## QVQLVESGGGLVQAGGSLRLSCAASGNTVKGYAMGWYRQAPGKERELVAAISWSGSSTYYADSVKGRFTISRDNAKNTVYLQMNSLKPEDTAVYYCNRKYLGRYASVYGYGYWGQGTQVTVSS
  polyreactivity (PSR sort gate): high polyreactivity

## QVQLVESGGGLVQAGGSLPLSCAASGSIFQLNAMGWYRQAPGKERELVGSIRDGGSTSYADSVKGRFTISRDNAKNTVYLQMNSLKPADTAVYYCADLKLYIYDYWGQGTQVTVSS
  polyreactivity (PSR sort gate): high polyreactivity

## QVQLVESGGGLVQAGGSLRLSCAASGFTFRYYAMGWSRQAAGKERELVATITGSGGSTYYADSVKGRFTISRDNAKNTVYLQMNSLKPEDTAVYYCNTVWYSDVRYTRFYYWGQGTQVTVSS
  polyreactivity (PSR sort gate): high polyreactivity

## QVQLVESVGGLVQAGGSLRLSCASSGFTFRFYVMGWSRQAPGKERELVAAITASGGTTYYADSVKGRFTISRDNAKNTVYLQMNSLKPEDTAVYYCNARYYYLYGYDYWGQGTQVTVSS
  polyreactivity (PSR sort gate): high polyreactivity

## QVQLVESGGGLVQAGGSLRLSCAASGSILGYYAMRWYRQAPGKDRELVAAISSGGSTNYADSVKGRFTISRDNAKNTVYLQMNSLKPEDTAVYYCAADRTYHGGFDYWGLGTQVTVSS
  polyreactivity (PSR sort gate): low polyreactivity

## QVQLVESGGGLVQAGGSLRLSCAASGFIFPYYAMGWYRQAPGKERELVAAISSSGGRTYYADSVKGRFTISRDNAKNTVYLQMNSLKPEDTAVYYCNARPNPYLGYGYWGQGTQVTVSS
  polyreactivity (PSR sort gate): high polyreactivity

## QLQLVESGGGLVQAGGSLRISCAASGSTFFLNAMGWYRQAPGKERELVAAITSGSGNTYYADSVKGRFTISRDNAKNTVYLQMNSLKPADSAVYYCNVTRFVYRPYGLDRDDYWGQGTQGTVSS
  polyreactivity (PSR sort gate): low polyreactivity

## QDQLVESGGGLVQAGGSLRLSCAASGGIFPDNAMGWSRKAPGKERELVATISWSGGSTYADSVKWRFTISRDNAKNTVYLQMNRLKPEDTAVYYCAAGSAYLWGQGTQVSVSS
  polyreactivity (PSR sort gate): low polyreactivity

## QVQLVESGGGLVQAGGSLRLSCAASGFTFAPNAMAWYRQAPGKERELVAAITWSGGSTYYADSVKGRFTISRDNAKNTVYLQMNSLKPEDTAVYYCNAVSRSTVTGQHDYWGQGTQVTVSS
  polyreactivity (PSR sort gate): high polyreactivity

## QVHLVESGGGLVQAGGSLRLSCAASGLTFAWYAMGWYSQAPGKERELVAVISNGGSTNDADSVKGRFTISRDNAKNTVYLQMNSLKPEDTAVYYCAAGWVWSGNDYYYWGQGTQVTVSS
  polyreactivity (PSR sort gate): low polyreactivity

## QVQHVESGVGLVQAGGSLRLSCAASGSTFVPYAMGWYRQAPGKDRELVAAISSAGSTNYADSVKGRFTISRDNAKNTVYLQMNSLKPEDTAVYYCARDIQDTYEFDYWGQGTQVTVSS
  polyreactivity (PSR sort gate): low polyreactivity

## QVQLVESGGGLVQAGGSLRLSCAASGSIIVYNTMGWYRQAPGKERGLVAAITVRDDSTYYADSVKGRFTISRDNAKNTVYLQMNSLKPEDTAVYYCNVRKTWYGYSVTGRYDYWGQGTEVTVSS
  polyreactivity (PSR sort gate): low polyreactivity

## QVQLVESGGGLVQAGGSLRLSCAASGSTFYTYAMGWYRQAPGKERELVAAIRGRGGRTYYADSVKGRFTISRDNAKNTVYLQMNSLKPEDTSVYYCNADGYAYYRATTRFDYWGQGTQVTVSS
  polyreactivity (PSR sort gate): high polyreactivity

## QVQLVESGGGLVQAGGSLRLSCAASGRTFFKYVMGWYRQAPGKERELVAAISYRSGSTYYADSVKGRFTISRDNAKNTVYLQMNSLKPEDTAVYYCAKEPPPVKGDYWGQGTQVTVSS
  polyreactivity (PSR sort gate): low polyreactivity

## QVQLVESGGGLVQAGGSLRLSCAASGSTFSQNAMGWYRQAPGKERELVDAITSGGITYYADSVKGRFTISRDNAKNTVYLQMNSLKPEDTAVYYCNADAIVSPYRLWTVTYYYWGQGTQVTVSS
  polyreactivity (PSR sort gate): low polyreactivity

## QVQLVESVVGLVQAGRSLRLSCAASGYTFWQYAMGWYRQAPGKERELVATITSRGGSTYYADSVKGRFTISRDTAKNSVYFQMNSLKPEDTAVYYCAARVYYPSTSNAAYGYCGQGTQVTVSS
  polyreactivity (PSR sort gate): high polyreactivity

## QVQLVESGGVLVQAGGSLRLSCAASGSTFLDYAMGWYRQAPGKERELVAAITSGGSTYYADSVKGRFTISRDNAKNTVDLHMKSMIPEDTAVYYCAADSVTGNAPSLVGDIYYYWGQGTQVTVSS
  polyreactivity (PSR sort gate): low polyreactivity

## QVQLVESGGGLVQPGGSLRLSCAASGYTSSPYAMGWYRQAPGKERELVAGISSGGSTYADSVKGRFTISRDNAKNTVYLQMISLKPEDTAVYYCADVWYYWTFEFDYWGQGTQVTVSS
  polyreactivity (PSR sort gate): high polyreactivity

## HVQLVESGGGLVQAGGSLRLSCAASGGIFFDNAMGWYRQGPGKERELVAAIRGDSGSTYYADSVKGRFTISRDNAKNTVYLQMNSLKPEDTAVYYCAAALRDYYPGGEYYSQYEYWGQGTQVTVSS
  polyreactivity (PSR sort gate): low polyreactivity

## QVQIVESGGGLVQAGGSLRISCAASGSIFIYYAMGWYRQAPGKDRELVAAISNGGSTNYADSVKGRFTISRDNANNTVYLLMNRLTPEDTSVFYCNKQYWYWSNTLTIRDYWGQGTQVTVSS
  polyreactivity (PSR sort gate): low polyreactivity

## QVQLVESGGGLVQAGGSLRLSCAASGSTFTRNPLGWYRQAPGKERELVATISRSGGSTYYADSVKGRFTISRDNAKNTVYLQMNSLKPEDTAVYYCARPYQYYKFYSHDYWGQGTQVTVSS
  polyreactivity (PSR sort gate): high polyreactivity

## QVQLVDSGGGLVQAGGSLRLICAASGFIFTDYAMGWYRQAPGKEREFFAAIDWSGGNTYYADSVKGRFTISRDNAKNTVYLQMKSLKPEDTAVYYCAASGSAREYDYWGQGTQVTVSS
  polyreactivity (PSR sort gate): low polyreactivity

## QVHLVESGGGLVQAGGSLCLSCAASGSIFINAMGWYRQAPGKERELVATIRWRGGTTYYADSVKGRFTISRDNAKNTVYLQMNSLKPEDTAVYYCAARVHSVHYPYYYWGQGTQVTVSS
  polyreactivity (PSR sort gate): low polyreactivity

## QVQLVESGGGLVQAGGSLRLSCAASGFTFRRYAMGWYRQAPGKERELVAAISYSGGITYYADSVKGRFTISRDNAKNTVYLQMNSLKPEDTAVYYCAAESVWTWYYTTAGMDYWGQGTQVTVSS
  polyreactivity (PSR sort gate): high polyreactivity

## QVQLVESGGGLVQAGGSLRLSCAASGITFARYAMAWYRPAPGKERELVAAISKRGGRTYYADSVKGRFTISRDNAKNTFYLQMNSLKPEDTAVYYCATDYYVSTDYNYWGQGTQVTLSS
  polyreactivity (PSR sort gate): high polyreactivity

## QFQLVESGGGLVQAGGSIRLSCAASGSTFTIYAMGWYRQAPGKERELVAAISGTGGTKYADSVKGRFTISRDNAKNTVYLQMTSLKPEDTAVYYCAARYMLWDGDSWTEFDYWGQGTQVTVSS
  polyreactivity (PSR sort gate): low polyreactivity

## QVQLVESGGGLVQAGGSLRLSCAASGYTFVDNAMGRYRQAPGKERELVAAINWDGASTYADSVKGRFTISRDNAKNTVYLQMNSLKPEDTAVYYCTASGKDIFNYVYQGYDYWGQGTQVTVSS
  polyreactivity (PSR sort gate): low polyreactivity

## QVQLVESGGGLVQAGGSLRLSCAASGSTFGPYAMGWYRQAPGKERELVATITRNGGSTYYADSVKGRFTISRDNAKNTVYLQMNSLKPEDTAVYYCNAEGRWSSFTQRMDYWGQGTQVTVSW
  polyreactivity (PSR sort gate): low polyreactivity

## QVQLVESGGGLVQAGGSLRLSCAASGIIFDRYAMGWYRQAPGKEREFVAAISRRGGSTYYADSVKGRFTISRDNAKNTVYLQMNSLKPEDTAVYYCAKEIRYSSSVSESDYWGQGTQVTVSS
  polyreactivity (PSR sort gate): high polyreactivity

— the nanobody polyreactivity screen of Harvey et al. (2022)
